# Results: PMC9600270, “Quantum Dot-Based Screening Identifies F3 Peptide and Reveals Cell Surface Nucleolin as a Therapeutic Target for Rhabdomyosarcoma” (Cancers, 2022)
# Biological target: nucleolin (cell surface, on RD and Rh30 rhabdomyosarcoma cells) (UniProt P19338)
# Experiment: FACS cell binding of QD conjugate
# Details: overnight 37 C, 5' AminoC6, QD-aptamer 10 nM (Methods; 20 nM in Figure 5b legend) with adherent cells, 12 h/overnight, 5% CO2, conjugates prepared in PBS pH 7.4/1% BSA
# Chain of nucleolin (cell surface, on RD and Rh30 rhabdomyosarcoma cells) (P19338 whole entry): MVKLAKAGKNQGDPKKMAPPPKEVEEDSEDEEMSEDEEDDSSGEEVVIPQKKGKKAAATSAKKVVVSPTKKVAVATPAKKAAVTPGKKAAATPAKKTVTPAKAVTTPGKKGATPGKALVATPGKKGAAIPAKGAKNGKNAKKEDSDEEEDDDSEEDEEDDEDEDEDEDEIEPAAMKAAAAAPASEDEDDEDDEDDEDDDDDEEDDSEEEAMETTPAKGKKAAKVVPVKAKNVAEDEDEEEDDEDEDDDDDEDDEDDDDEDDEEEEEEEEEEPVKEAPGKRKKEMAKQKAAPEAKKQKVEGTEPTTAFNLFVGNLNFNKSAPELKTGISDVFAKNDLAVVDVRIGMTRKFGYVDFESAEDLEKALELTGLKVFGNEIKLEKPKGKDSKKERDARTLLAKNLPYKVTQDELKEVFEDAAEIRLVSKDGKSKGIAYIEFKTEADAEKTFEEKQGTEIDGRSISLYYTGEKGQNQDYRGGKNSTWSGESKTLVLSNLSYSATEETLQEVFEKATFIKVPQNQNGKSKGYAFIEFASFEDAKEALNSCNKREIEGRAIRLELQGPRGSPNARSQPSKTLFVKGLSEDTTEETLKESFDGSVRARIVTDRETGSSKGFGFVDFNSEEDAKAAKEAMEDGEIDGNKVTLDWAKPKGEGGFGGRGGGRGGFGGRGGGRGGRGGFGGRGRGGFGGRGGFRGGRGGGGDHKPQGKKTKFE
sequence,measurement,setting,value
TTGGTGGTGGTGGTTGTGGTGGTGGTGG [AS1411 (AGRO100)],binding signal (fold over QD-NC-AS1411),RD cells,8.8
same,binding signal (fold over QD-NC-AS1411),Rh30 cells,2.2
